The nature of the data set: self-splicing fitness, log relative to wild type (ln ratio); higher = more splicing; Tetrahymena group I intron in knt gene, E. coli kanamycin selection, DiMSum; sequences stand for … in CUCUCU…GGAGGGAAAAGUUAUCAGGCAUGCACCUGGUAGCUAGUCUUUAAACCAAUAGAUUGCAUCGGUUUAAAAGGCAAGACCGUCAAAUUGCGGGAAAGGGGUCAACAGCCGUUCAGUACCAAGUCUCAGGGGAAACUUUGAGAUGGCCUUGCAAAGGGUAUGGUAAUAAGCUGACGGACAUGGUCCUAACCACGCAGCCAAGUCCUAAGUCAACAGAUCUUCUGUUGAUAUGGAUGCAGUUCACAGACUAAAUGUCGGUCGGGGAAGAUGUAUUCUUCUCAUAAGAUAUAGUCGGACCUCUCCUUAAUGGGAGCUAGCGGAUGAAGUGAUGCAACACUGGAGCCGCUGGGAACUAAUUUGUAUGCGAAAGUAUAUUGAUUAGUUUUGGAGUACUCGUGGUCG
The essentials:
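Pooled colonies went to amplicon sequencing on an Illumina HiSeq 2500 after six replicate transformations. The plates were LB agar with 100 μg/mL carbenicillin, 50 μM IPTG and 0.2% rhamnose, with or without 25 μg/mL kanamycin, incubated overnight at 37°C or 30°C. The E. coli BL21(DE3) library had all eight P1ex-region intron nucleotides randomised, the intron placed in the knt kanamycin-resistance gene on pET-22b(+). DiMSum fitness is the error-weighted combination of replicate fold changes, kanamycin against none, normalised to wild type.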

± gives the uncertainty stated by the source.

CCCAAGCAAUAUUACGUUGA: the “self-splicing fitness (ln)” value is -3.74 ± 0.14 (30 °C) and -3.04 ± 0.14 (37 °C).

Turning to GCCGAGCAAUAUUACGAAGA, the “self-splicing fitness (ln)” value (30 °C) was -2.76 ± 0.16 and the “self-splicing fitness (ln)” value (37 °C) was -2.03 ± 0.12. With CAUGAGCAAUAUUACGGAAG, the “self-splicing fitness (ln)” value runs as follows: (30 °C) -1.47 ± 0.077; (37 °C) -0.61 ± 0.1. For UCAAAGCAAUAUUACGGCAC the same measures were -3.33 ± 0.38 and -1.68 ± 0.35. For UGGCAGCAAUAUUACGAGCU the same measures were -1.98 ± 0.16 and -1.91 ± 0.19.

Consider GUGUAGCAAUAUUACGAGGA, for which, for the setting “30 °C”, the “self-splicing fitness (ln)” value is -2.9 ± 0.44. UGUAAGCAAUAUUACGGCGG: the “self-splicing fitness (ln)” value (30 °C) is -0.367 ± 0.098 and the “self-splicing fitness (ln)” value (37 °C) is -0.217 ± 0.12. With GGGCAGCAAUAUUACGAGGG, the “self-splicing fitness (ln)” value reads like this: (30 °C) -3.93 ± 0.34; (37 °C) -2.39 ± 0.24. For the sequence CAACAGCAAUAUUACGAGAC, the “self-splicing fitness (ln)” value reads like this: (30 °C) -2.57 ± 0.11; (37 °C) -2.22 ± 0.14. The corresponding values for UUUGAGCAAUAUUACGUUGG are -3.37 ± 0.28 and -2.26 ± 0.26. With UAGGAGCAAUAUUACGACCG, the “self-splicing fitness (ln)” value runs as follows: (30 °C) 0.0998 ± 0.18; (37 °C) -0.0128 ± 0.23. For GGGUAGCAAUAUUACGGGAU the same measures were -3.17 ± 0.22 and -2.04 ± 0.23. Regarding CAUUAGCAAUAUUACGCAGU, the “self-splicing fitness (ln)” value reads like this: (30 °C) -3.73 ± 0.18; (37 °C) -2.77 ± 0.22. On to UGUCAGCAAUAUUACGUAGU, for which the “self-splicing fitness (ln)” value (30 °C) was -2.85 ± 0.15 and the “self-splicing fitness (ln)” value (37 °C) was -0.865 ± 0.11.

For UGAGAGCAAUAUUACGUAUA, the “self-splicing fitness (ln)” value by setting is: (30 °C) -3.03 ± 0.42; (37 °C) -1.66 ± 0.35. For GCGAAGCAAUAUUACGCUGG the same measures were -1.61 ± 0.13 and -2.73 ± 0.22. The corresponding values for UCGCAGCAAUAUUACGAGCG are -1.97 ± 0.12 and -0.806 ± 0.13.

With AUUGAGCAAUAUUACGCAAC, the “self-splicing fitness (ln)” value (30 °C) is -3.42 ± 0.26 and the “self-splicing fitness (ln)” value (37 °C) is -2.26 ± 0.39.

Regarding AGGCAGCAAUAUUACGGGCU, the “self-splicing fitness (ln)” value was -0.928 ± 0.071 (30 °C) and -1.51 ± 0.11 (37 °C). The corresponding values for GGGCAGCAAUAUUACGAGAC are -3.12 ± 0.26 and -1.74 ± 0.19.

For the sequence UCGCAGCAAUAUUACGCAGU, the “self-splicing fitness (ln)” value by setting is: (30 °C) -3.58 ± 0.2; (37 °C) -2.35 ± 0.2. For GGAUAGCAAUAUUACGGGAU the same measures were -3.03 ± 0.27 and -2.39 ± 0.21. The corresponding values for ACUUAGCAAUAUUACGGCGC are -0.406 ± 0.11 and 0.119 ± 0.15. The corresponding values for CUCAAGCAAUAUUACGAGUU are -3.34 ± 0.15 and -2.52 ± 0.15. Consider UGCAAGCAAUAUUACGGGCG, for which the “self-splicing fitness (ln)” value is, setting by setting: (30 °C) -1.41 ± 0.087; (37 °C) -0.699 ± 0.1. Consider CUGGAGCAAUAUUACGAAGG, for which the “self-splicing fitness (ln)” value reads like this: (30 °C) -3.43 ± 0.28; (37 °C) -1.97 ± 0.27. The corresponding values for CUUCAGCAAUAUUACGACCG are 0.185 ± 0.083 and -0.454 ± 0.12. For GCCCAGCAAUAUUACGUUGA the same measures were -1.72 ± 0.11 and -1.25 ± 0.12.

On to UCAAAGCAAUAUUACGGGCC, for which the “self-splicing fitness (ln)” value (30 °C) was -3.12 ± 0.4. On to UGGCAGCAAUAUUACGAGUC, for which the “self-splicing fitness (ln)” value runs as follows: (30 °C) -2.79 ± 0.17; (37 °C) -3.11 ± 0.23. The corresponding values for AUUUAGCAAUAUUACGGUGU are -2.3 ± 0.095 and -1.48 ± 0.11.

In the case of UACUAGCAAUAUUACGGAAG, the “self-splicing fitness (ln)” value is -3.07 ± 0.26 (30 °C) and -2.91 ± 0.43 (37 °C). Take CACGAGCAAUAUUACGCACA: the “self-splicing fitness (ln)” value is -2.74 ± 0.19 (30 °C) and -1.17 ± 0.15 (37 °C). As to AGUAAGCAAUAUUACGAUCC, the “self-splicing fitness (ln)” value is, setting by setting: (30 °C) -0.71 ± 0.097; (37 °C) 0.236 ± 0.15. For the sequence UUUUAGCAAUAUUACGUGCG, the “self-splicing fitness (ln)” value (30 °C) is -1.42 ± 0.17 and the “self-splicing fitness (ln)” value (37 °C) was -0.84 ± 0.13.

Take AUGAAGCAAUAUUACGGCAC: the “self-splicing fitness (ln)” value is -0.455 ± 0.086 (30 °C) and 0.222 ± 0.14 (37 °C). As to GCGGAGCAAUAUUACGAGGU, the “self-splicing fitness (ln)” value (30 °C) is -4.1 ± 0.46. For CCAAAGCAAUAUUACGGAAG, the “self-splicing fitness (ln)” value (30 °C) was -2 ± 0.056 and the “self-splicing fitness (ln)” value (37 °C) was -1.11 ± 0.074. With CCCCAGCAAUAUUACGCCAG, the “self-splicing fitness (ln)” value reads like this: (30 °C) -3.57 ± 0.2; (37 °C) -2.44 ± 0.22. On to GAUGAGCAAUAUUACGAGAG, for which the “self-splicing fitness (ln)” value (37 °C) is -3.01 ± 0.29.

On to CGAUAGCAAUAUUACGGCCU, for which the “self-splicing fitness (ln)” value was -1.67 ± 0.19 (30 °C) and -0.545 ± 0.2 (37 °C). In the case of AGACAGCAAUAUUACGGCGC, the “self-splicing fitness (ln)” value (30 °C) was -0.893 ± 0.092 and the “self-splicing fitness (ln)” value (37 °C) was -0.134 ± 0.12. Regarding GGUGAGCAAUAUUACGUUGU, the “self-splicing fitness (ln)” value reads like this: (30 °C) -4.18 ± 0.31; (37 °C) -2.04 ± 0.25. Turning to GCGAAGCAAUAUUACGACGG, the “self-splicing fitness (ln)” value is -1.27 ± 0.21 (30 °C) and -0.313 ± 0.33 (37 °C).

For CGCGAGCAAUAUUACGGACU, the “self-splicing fitness (ln)” value runs as follows: (30 °C) -1.82 ± 0.3; (37 °C) -0.107 ± 0.26.

As for AUCCAGCAAUAUUACGUCCA, the “self-splicing fitness (ln)” value is, setting by setting: (30 °C) -1.22 ± 0.11; (37 °C) -0.412 ± 0.12. For ACAGAGCAAUAUUACGUCCG the same measures were -3.65 ± 0.21 and -2.52 ± 0.27. For CGUCAGCAAUAUUACGUCUG, the “self-splicing fitness (ln)” value runs as follows: (30 °C) -0.234 ± 0.062; (37 °C) 0.106 ± 0.08. As to GCGCAGCAAUAUUACGCGGU, the “self-splicing fitness (ln)” value is -3.82 ± 0.28 (30 °C) and -2.25 ± 0.22 (37 °C).

Turning to CCCGAGCAAUAUUACGAAUA, the “self-splicing fitness (ln)” value was -3.44 ± 0.2 (30 °C) and -2.89 ± 0.21 (37 °C). As for UAGCAGCAAUAUUACGAUUA, the “self-splicing fitness (ln)” value is, setting by setting: (30 °C) -0.00343 ± 0.049; (37 °C) -0.0327 ± 0.066. For AUGAAGCAAUAUUACGAAAU the same measures were -0.819 ± 0.07 and -0.46 ± 0.073. The corresponding values for AGGAAGCAAUAUUACGGUCU are -0.784 ± 0.079 and 0.265 ± 0.11.

With AUGUAGCAAUAUUACGUUUC, the “self-splicing fitness (ln)” value is, setting by setting: (30 °C) -2.86 ± 0.24; (37 °C) -2.55 ± 0.26. As to GCGUAGCAAUAUUACGUAAA, the “self-splicing fitness (ln)” value was -0.977 ± 0.21 (30 °C) and -1.1 ± 0.25 (37 °C). UUGAAGCAAUAUUACGACUC: the “self-splicing fitness (ln)” value by setting is: (30 °C) -1.26 ± 0.079; (37 °C) -0.526 ± 0.11. The corresponding values for UAACAGCAAUAUUACGGCGG are -0.643 ± 0.053 and -0.105 ± 0.068.

ACUCAGCAAUAUUACGGACG: the “self-splicing fitness (ln)” value is -0.251 ± 0.069 (30 °C) and -0.156 ± 0.09 (37 °C). The corresponding values for GUCAAGCAAUAUUACGCUCU are -1.58 ± 0.14 and -1.18 ± 0.14. Regarding GGAUAGCAAUAUUACGGAGA, the “self-splicing fitness (ln)” value is -2.79 ± 0.26 (30 °C) and -2.33 ± 0.3 (37 °C).

On to GCACAGCAAUAUUACGUAGG, for which the “self-splicing fitness (ln)” value (30 °C) was -0.466 ± 0.055 and the “self-splicing fitness (ln)” value (37 °C) was -0.109 ± 0.069.

Turning to GUCUAGCAAUAUUACGACUC, the “self-splicing fitness (ln)” value (30 °C) was -0.625 ± 0.13 and the “self-splicing fitness (ln)” value (37 °C) is -0.52 ± 0.15. Take UCGGAGCAAUAUUACGCCUG: the “self-splicing fitness (ln)” value (30 °C) is -0.894 ± 0.26. On to CAUAAGCAAUAUUACGAACG, for which the “self-splicing fitness (ln)” value (30 °C) was -0.246 ± 0.074 and the “self-splicing fitness (ln)” value (37 °C) was -0.0693 ± 0.087. For UAAUAGCAAUAUUACGUACG the same measures were -2.13 ± 0.13 and -1.16 ± 0.17. For CUCAAGCAAUAUUACGGGGU the same measures were -3.4 ± 0.15 and -3.44 ± 0.19. For GCGCAGCAAUAUUACGAAUG the same measures were -1.52 ± 0.13 and -0.961 ± 0.14. For GCUCAGCAAUAUUACGAUCC, the “self-splicing fitness (ln)” value was -0.823 ± 0.076 (30 °C) and -0.215 ± 0.1 (37 °C). Regarding GCCCAGCAAUAUUACGAGUA, the “self-splicing fitness (ln)” value was -0.468 ± 0.14 (30 °C) and -0.671 ± 0.1 (37 °C). For the sequence AUUGAGCAAUAUUACGACGA, the “self-splicing fitness (ln)” value is -3.19 ± 0.4 (30 °C) and -0.517 ± 0.22 (37 °C). Regarding UUUUAGCAAUAUUACGAGUU, the “self-splicing fitness (ln)” value (37 °C) is -0.193 ± 0.24.

For AAAAAGCAAUAUUACGUGAU, the “self-splicing fitness (ln)” value (30 °C) is -2.07 ± 0.072 and the “self-splicing fitness (ln)” value (37 °C) was -0.588 ± 0.09. On to AAGGAGCAAUAUUACGCAUA, for which, under “30 °C”, the “self-splicing fitness (ln)” value is -2.45 ± 0.49. Consider UCUCAGCAAUAUUACGCGGG, for which the “self-splicing fitness (ln)” value (30 °C) was -1.7 ± 0.14 and the “self-splicing fitness (ln)” value (37 °C) is -1.4 ± 0.15. The corresponding values for AUGUAGCAAUAUUACGGUCA are -0.793 ± 0.14 and -0.745 ± 0.13.

Consider AACUAGCAAUAUUACGGGCC, for which the “self-splicing fitness (ln)” value reads like this: (30 °C) -1.81 ± 0.12; (37 °C) -1.36 ± 0.14.

CAAAAGCAAUAUUACGGUUC: the “self-splicing fitness (ln)” value runs as follows: (30 °C) -3.56 ± 0.22; (37 °C) -1.83 ± 0.18.

These data come from the supplement of paper PMC7877785.
